Patent publication US20240018268A1

Molecular target: binding reagent of the similar bridge assay for the anti-CD19 (SJ25C1) CAR
Test: similar bridge assay for the anti-CD19 (SJ25C1) CAR

binding reagent of the similar bridge assay for the anti-CD19 (SJ25C1) CAR, sequence (scFv, as listed by the source limits assumed): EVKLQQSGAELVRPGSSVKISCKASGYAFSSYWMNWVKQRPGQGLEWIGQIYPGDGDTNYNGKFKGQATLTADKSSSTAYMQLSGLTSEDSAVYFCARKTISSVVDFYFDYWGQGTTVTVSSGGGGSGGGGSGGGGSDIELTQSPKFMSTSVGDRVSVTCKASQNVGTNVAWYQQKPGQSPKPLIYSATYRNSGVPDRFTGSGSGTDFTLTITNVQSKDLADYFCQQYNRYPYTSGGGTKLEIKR

- fold signal over plasma background: > 5 fold
- sensitivity of the bridge assay: < 100 ng/mL
B1: anti-idiotype antibody clone A-1 (anti-ID A-1) (antibody, mouse IgG1, kappa, V domains shown)
VH: QVQLQQPGSELVRPGGSVKLSCKASDYTFTSYWMHWVRQRPGQGLEWIGNIYPGSGGTNYDEKFKRKATLTVDTSSSTAYMQLRSLTSEDSAVYYCTREVTTVAYYYSMDYWGQGTSVTVSS
VL: DIQMTQTTSSLSASLGDRVTISCRASQDISNYLNWYQQKPDGTVKLLIYYTSRLHSGVPSRFSGSGSGTDYSLTISNLEQEDIATYFCQQGKTVPFTFGSGTKLEIKR
